Test results reported in US20030148264A1, “Phage displayed PDZ domain ligands” (GENENTECH, INC., priority 2001, published 2003).
Where no end group is shown, it is not given here.

Experiments:
[1] = test system: Caco-2 cells; assay: Peptide targeting in live Caco-2 cells (fluorescein coupled peptides, confocal microscopy); assay type: cell-based; details: polarised Caco-2 monolayer, overnight incubation, 2 mM or 5 mM peptide; FIG. 5
Method: Caco-2 cells were grown on polycarbonate transwell filters (12 mm diameter, 0.4 μm pore size; Costar) in same media as HEK 293 cells) until a fully polarized monolayer was obtained as determined by resistance measurements. The live cells were then incubated overnight with amino terminally, fluorescein (FAM) coupled peptides: (A) 2 μM of ATQITWV (SEQ ID NO:214), (B) 2 μM ATQITWA (SEQ ID NO:215) or (C) 5 μM ASKITWV (SEQ ID NO:216) added into the media of the lower transwell chamber. The cells were then washed with Hanks Balanced Salt Solution (HBSS) with 1.8 mM CaCl2, fixed with ice cold methanol, permeabilized with 0.25% Triton X-100 in PBS, blocked with 5% donkey serum in PBS and stained with 1.5 μg monoclonal anti-γ-catenin antibody. The basolateral marker protein γ-catenin was visualized using Cy3-conjugated donkey anti-mouse antibodies (Jackson Immunolabs), diluted 1:1000. Processed filters were excised with a razor and mounted between a slide and coverslip with Vectashield mounting medium (Vector Labs; Burlingame, Calif.). Images were taken on a Leica confocal microscope using a 63X oil immersion objective.
Caco-2 cells were grown on polycarbonate transwell filters until a fully polarised monolayer was obtained. The live cells were then incubated overnight with the fluorescein (green) coupled peptides: (A) 2 mM of ATQITWV (SEQ ID NO:214), (B) 2 mM ATQITWA (SEQ ID NO:215) or (C) 5 mM ASKITW (SEQ ID NO:221) (FIG. 5). The cells were then fixed and counterstained with antibodies against the protein γ-catenin (FIG. 5). […] Substitution of A for V at the peptide carboxyl terminus should disrupt the interaction of a ligand with its cognate PDZ binding partner.

[2] = biological target: T1, MAGI 3 PDZ2 (Homo sapiens, UniProt Q5TCQ9); assay: Biotinylated peptide pull-down of PDZ domains from HEK 293 cell extracts; assay type: binding; set-up: PDZ 2; aa; expressed in transfected cells; host or cells: HEK 293; details: GST fusion, FIG. 4, FIG. 8
T1 sequence (Q5TCQ9 584-707 isoform Q5TCQ9-2): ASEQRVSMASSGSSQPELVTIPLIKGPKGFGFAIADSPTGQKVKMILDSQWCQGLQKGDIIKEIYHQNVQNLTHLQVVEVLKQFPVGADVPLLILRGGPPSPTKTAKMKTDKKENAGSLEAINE
Method: (§1) HEK 293 (293) cells grown in high glucose Dulbeco's Modified Eagle Medium (DMEM), 10% fetal calf serum, 1× non-essential amino acid supplement, 1×L-glutamine supplement, 10 mM HEPES (pH 7.4) and penicillin/streptomycin (all from Life Technologies) to ˜80% confluence were transfected with 2 μg DNA/35 mm diameter well (for example, DNAs encoding the sequences described in EXAMPLE 5.0) using Fugene reagent (Roche Biochemical). 24 hours post-transfection, cells were washed once with PBS and then scraped into 1 ml/well of 20 mM Tris (pH 7.5), 1% Triton X-100, 200 mM NaCl, 1 mM dithiothreitol, and protease inhibitor cocktail with EDTA (Roche Biochemical, catalog #1836145) and homogenized gently with three to five strokes in a dounce (Wheaton) using a loose glass pestle. Extracts were centrifuged at 12,000 rpm in a tabletop centrifuge at 4° C. for 10 minutes; the supernatant was combined with an equal volume of homogenization buffer without NaCl to achieve a final salt concentration of 100 mM and frozen at −70° C. until use. For peptide-pull-down experiments of MAGI-3 PDZ domains or the ERBIN PDZ domain, 100 μl of 293 cell extract was diluted to 400 μl in binding buffer (homogenization buffer modified to 100 mM NaCl) and incubated with 10 μM amino-terminally biotinylated peptide and 100 μl of strepavidin agarose (Sigma) for 2 hours on a rotator at 4° C. The beads were washed three times with 1 ml binding buffer and boiled in 60 μl of Laemmli's reducing sample buffer, of which 15 μl was loaded onto SDS-gels. PDZ domains co-precipitated with a given biotinylated peptide were visualized by immunoblot analysis using anti-GST (Genentech) or anti-GFP (Clontech) antibodies. […] Binding of 293 cell-expressed proteins was detected by immunoblot analysis using antibodies against GFP (Clontech) and Her 2 (Santa Cruz Biotechnology). […]

[3] = biological target: T2, MAGI-3 PDZ 3 (Homo sapiens, UniProt Q5TCQ9); assay: as above; assay type: binding; details: GST fusion, FIG. 4
T2 construct: PDZ 3; aa; expressed in transfected cells; host or cells: HEK 293
T2 sequence (Q5TCQ9 741-840 isoform Q5TCQ9-2): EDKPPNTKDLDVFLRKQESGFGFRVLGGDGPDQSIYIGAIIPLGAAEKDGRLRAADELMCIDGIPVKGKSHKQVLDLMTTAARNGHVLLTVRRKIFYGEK
Method: as §1, with “use.” for “use. For peptide-pull-down experiments of MAGI-3 PDZ domains or the ERBIN PDZ domain, 100 μl of 293 cell extract was diluted to 400 μl in binding buffer (homogenization buffer modified to 100 mM NaCl) and incubated with 10 μM amino-terminally biotinylated peptide and 100 μl of strepavidin agarose (Sigma) for 2 hours on a rotator at 4° C. The beads were washed three times with 1 ml binding buffer and boiled in 60 μl of Laemmli's reducing sample buffer, of which 15 μl was loaded onto SDS-gels. PDZ domains co-precipitated with a given biotinylated peptide were visualized by immunoblot analysis using anti-GST (Genentech) or anti-GFP (Clontech) antibodies.”

[4] = biological target: T3, hZO1 PDZ1 (Homo sapiens, UniProt Q07157); assay: IC50 (nM) | hZO1 PDZ1 | 5 nM | B01-88 | Bio-GGWRWTTWL (SEQ ID NO: 684) | 36 nM
T3 construct: Human ZO1 (NM_003257) PDZ1; GST; made in house
Method: Table printed on a drawing sheet, FIG. 12A
Head of the field: IC50 (nM) | hZO1 PDZ1 | 5 nM | B01-88 | Bio-GGWRWTTWL (SEQ ID NO: 684) | 36 nM
The patent's description of the figure: FIG. 12. IC50 values indicating binding affinities of various peptides to PDZ domains
First copying reader's note: Upper left part of a table split over FIG. 12A-12D; further receptor columns and further peptides are on the other sheets.
Where the first naming reader finds the target: head: IC50 (nM) | hZO1 PDZ1 | 5 nM | B01-88

[5] = biological target: GST-MAGI-3 PDZ 2 (aa. 584-707 of SEQ ID NO:200) (human) [GST: P08515]; assay: competition ELISA: peptide blocks GST-PDZ binding to immobilized peptide
[6] = biological target: GST-MAGI-3 PDZ 2 (aa. 584-707 of SEQ ID NO:200) (human) [GST: P08515]; assay: competition ELISA
[7] = biological target: ERBIN PDZ-GST fusion protein (aa. 1217-1371 of SEQ ID NO:201) (human) [GST: P08515]; assay: competition ELISA: ERBIN PDZ-GST binding to immobilized biotin-PDZ 501
[8] = biological target: ERBIN PDZ domain (Homo sapiens, UniProt Q96RT1); assay: GST-PDZ co-precipitation of proteins from transfected HEK 293 cell extracts; assay type: binding; set-up: made in house; host or cells: E. coli; details: extracts from transfected HEK 293 cells; FIG. 6
Method: HEK 293 (293) cells grown in high glucose Dulbeco's Modified Eagle Medium (DMEM), 10% fetal calf serum, 1× non-essential amino acid supplement, 1×L-glutamine supplement, 10 mM HEPES (pH 7.4) and penicillin/streptomycin (all from Life Technologies) to ˜80% confluence were transfected with 2 μg DNA/35 mm diameter well (for example, DNAs encoding the sequences described in EXAMPLE 5.0) using Fugene reagent (Roche Biochemical). 24 hours post-transfection, cells were washed once with PBS and then scraped into 1 ml/well of 20 mM Tris (pH 7.5), 1% Triton X-100, 200 mM NaCl, 1 mM dithiothreitol, and protease inhibitor cocktail with EDTA (Roche Biochemical, catalog #1836145) and homogenized gently with three to five strokes in a dounce (Wheaton) using a loose glass pestle. Extracts were centrifuged at 12,000 rpm in a tabletop centrifuge at 4° C. for 10 minutes; the supernatant was combined with an equal volume of homogenization buffer without NaCl to achieve a final salt concentration of 100 mM and frozen at −70° C. until use. […] Binding of 293 cell-expressed proteins was detected by immunoblot analysis using antibodies against GFP (Clontech) and Her 2 (Santa Cruz Biotechnology).
Amino acids 1217-1371 of ERBIN and 584-707 corresponding to PDZ 2 of MAGI-3 (Sidhu et al., 2000); were expressed in E. coli as GST fusions. […] Equal volumes of extract and depleted extract (sup.) were analyzed.

[9] = biological target: GST-MAGI-3 PDZ 3 (aa. 741-840 of SEQ ID NO:200) (human) [GST: P08515]; assay: competition ELISA: peptide blocks GST-PDZ binding to immobilized peptide
[10] = biological target: GST-MAGI-3 PDZ 3 (aa. 741-840 of SEQ ID NO:200) (human) [GST: P08515]; assay: competition ELISA
[11] = biological target: T4, GST-MAGI-3 PDZ 2 (aa. 584-707 of SEQ ID NO:200) (human, UniProt P08515 1-218 = GST); assay: competition ELISA: peptide blocks GST-PDZ binding to immobilized peptide
[12] = biological target: T4, GST-MAGI-3 PDZ 2 (aa. 584-707 of SEQ ID …); assay: competition ELISA
[13] = biological target: ERBIN PDZ-GST fusion protein (aa. 1217-1371 of SEQ ID NO:201) (human, UniProt P08515 1-218 = GST); assay: competition ELISA: ERBIN PDZ-GST binding to immobilized biotin-PDZ 501
Chain of ERBIN PDZ-GST fusion protein (aa. 1217-1371 of SEQ ID NO:201) (P08515 whole entry, the tested form may be a part): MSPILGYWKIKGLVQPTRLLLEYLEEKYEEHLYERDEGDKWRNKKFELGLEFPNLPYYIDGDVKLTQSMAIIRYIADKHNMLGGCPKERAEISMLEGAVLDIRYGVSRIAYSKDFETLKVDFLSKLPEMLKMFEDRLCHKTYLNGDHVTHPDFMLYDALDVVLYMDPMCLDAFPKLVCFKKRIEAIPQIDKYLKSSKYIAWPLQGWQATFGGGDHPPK

Chain of GST-MAGI-3 PDZ 3 (aa. 741-840 of SEQ ID NO:200) (human) [GST: P08515] (P08515 whole entry): as the sequence (P08515 whole entry, the tested form may be a part) above
T4 sequence (P08515 whole entry): as the sequence (P08515 whole entry, the tested form may be a part) above
Chain of GST-MAGI-3 PDZ 2 (aa. 584-707 of SEQ ID NO:200) (human) [GST: P08515] (P08515 whole entry, the tested form may be a part): as above
Chain of ERBIN PDZ-GST fusion protein (aa. 1217-1371 of SEQ ID NO:201) (human) [GST: P08515] (P08515 whole entry, the tested form may be a part): as above
Chain of ERBIN PDZ domain (Q96RT1 1258-1412): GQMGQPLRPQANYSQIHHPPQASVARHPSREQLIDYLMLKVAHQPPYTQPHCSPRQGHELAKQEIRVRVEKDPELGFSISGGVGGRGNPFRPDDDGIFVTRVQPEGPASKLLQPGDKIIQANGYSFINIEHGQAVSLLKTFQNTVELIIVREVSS
T3 sequence (Q07157 23-110): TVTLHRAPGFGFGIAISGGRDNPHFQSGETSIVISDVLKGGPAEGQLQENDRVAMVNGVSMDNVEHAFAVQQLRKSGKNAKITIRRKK

Molecule: ASKITWV [amino terminally fluorescein (FAM) coupled peptide]
- localization of fluorescein coupled peptide in live cells [1]: localize apically on the lateral membrane to the tight junction

Molecule: ATQITKV [biotinylated peptide with W to K change at the (−1) position, reference compound]
- precipitation of MAGI-3 PDZ 2 from cell extracts by biotinylated peptide [2]: did not bind
- precipitation of MAGI-3 PDZ 3 from cell extracts by biotinylated peptide [3]: did not bind

Molecule: ATQITWA [V to A change at the (0) position; used biotinylated or fluorescein coupled]
- localization of fluorescein coupled peptide in live cells [1]: does not target to the tight junction
- precipitation of MAGI-3 PDZ 2 from cell extracts by biotinylated peptide [2]: did not bind
- precipitation of MAGI-3 PDZ 3 from cell extracts by biotinylated peptide [3]: did not bind

Molecule: ATQITWV [derivative of the C-terminus of PTEN, K to W at (−1); used biotinylated or fluorescein coupled]
- localization of fluorescein coupled peptide in live cells [1]: localize apically on the lateral membrane to the tight junction
- precipitation of MAGI-3 PDZ 2 from cell extracts by biotinylated peptide [2]: efficiently precipitate only the PDZ domain that they were phage-selected against

Molecule: Ac-YRWTTWL [10 | 01-28, SEQ ID NO: 649: N^AC-YRWTTWL]
- IC50 [4]: 31 nM

Molecule: CSWV (peptide)
- IC50 [5]: 1400 nM
- IC50 [6]: 1000 nM

Molecule: DVPV (peptide)
- IC50 [7]: > 400000 nM

Molecule: Her 2: Her 2 receptor, a previously reported ligand for the ERBIN PDZ
- binding to / precipitation by GST-ERBIN PDZ [8]: specifically precipitated

Molecule: TRWWFDI (peptide)
- IC50 [9]: 900 nM

Molecule: TRWWFDI-NH2 (peptide)
- IC50 [9]: 300000 nM
- fold reduction in binding affinity against the unamidated peptide [10]: 300 fold

Molecule: VTWV (peptide)
- IC50 [5]: 4000 nM
- IC50 [6]: 4000 nM

B1: ASKVTWV (peptide)
peptide: ASKVTWV
notes: synthetic peptide
- IC50 [11]: 800 nM

B2: ITKV (peptide)
peptide: ITKV
notes: also called MAGI 3 PDZ2 domain "naturally-selected" ligand
- IC50 [12]: 200000 nM

B3: DGICSWV (peptide)
peptide: DGICSWV
notes: synthetic peptide
- IC50 [11]: 300 nM

B4: TGWETWV (peptide)
peptide: TGWETWV
notes: test peptide in solution
- IC50 [13]: 500 to 1000 nM

B5: TGWDTWV (peptide)
peptide: TGWDTWV
- IC50 [13]: 4500 to 5000 nM

B6: DVPA (peptide)
peptide: DVPA
notes: also called DVPA ligand
- IC50 [13]: > 100000 nM
